# According to the supplement of paper PMC9112550, “Optimization of the antimicrobial peptide Bac7 by deep mutational scanning” (BMC Biology, 2022):
# Test system: Escherichia coli TOP10
# Experiment: shrunken log2 fold change of peptide-encoding DNA abundance (4.5 h post-induction vs induction); higher = less antimicrobial activity (less host growth inhibition)
# Settings: time post-induction: 4.5 h; library: site-saturation at positions 5, 18, 19, 20
# 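Note: peptides expressed intracellularly from a pBAD plasmid library in pooled LB shake-flask culture, induced with 0.3% L-arabinose, DNA abundance read by NGS, three biological replicates, DESeq2 with apeglm shrinkage.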
row,Sequence,shrunken log2 fold change
1,RRIRKRPPRLPRPRPRPAGGPRP,0.435
2,RRIRHRPPRLPRPRPRPPPFPRP,0.0505
3,RRIRWRPPRLPRPRPRPIDFPRP,-3.4e-05
4,RRIRFRPPRLPRPRPRPRKNPRP,0.266
5,RRIRFRPPRLPRPRPRPEALPRP,0.0209
6,RRIRRRPPRLPRPRPRPDMCPRP,0.019
7,RRIRERPPRLPRPRPRPEQEPRP,-0.0107
8,RRIRDRPPRLPRPRPRPPDQPRP,0.72
9,RRIRLRPPRLPRPRPRPSGAPRP,-0.0192
10,RRIRDRPPRLPRPRPRPPFIPRP,-0.533
11,RRIRLRPPRLPRPRPRPVQMPRP,3
12,RRIRKRPPRLPRPRPRPICSPRP,-9.46e-05
13,RRIRGRPPRLPRPRPRPEPLPRP,0.341
14,RRIRWRPPRLPRPRPRPVYLPRP,-0.229
15,RRIRWRPPRLPRPRPRPYKQPRP,-0.0587
16,RRIRFRPPRLPRPRPRPSRGPRP,0.485
17,RRIRSRPPRLPRPRPRPRCSPRP,0.0579
18,RRIRGRPPRLPRPRPRPKFRPRP,0.112
19,RRIRWRPPRLPRPRPRPPRSPRP,0.733
20,RRIRHRPPRLPRPRPRPIAWPRP,0.0843
21,RRIRGRPPRLPRPRPRPTWDPRP,1.01
22,RRIRYRPPRLPRPRPRPVKLPRP,0.0698
23,RRIRTRPPRLPRPRPRPQKQPRP,0.166
24,RRIRWRPPRLPRPRPRPSCWPRP,0.0114
25,RRIRKRPPRLPRPRPRPHTLPRP,-0.168

row,Sequence,shrunken log2 fold change
1,RRIRCRPPRLPRPRPRPACFPRP,0.0497
2,RRIRHRPPRLPRPRPRPDYFPRP,0.0294
3,RRIRTRPPRLPRPRPRPDTPPRP,-0.193
4,RRIRWRPPRLPRPRPRPNCCPRP,-0.16
5,RRIRSRPPRLPRPRPRPVICPRP,-0.0365
6,RRIRNRPPRLPRPRPRPKGLPRP,-0.00227
7,RRIRYRPPRLPRPRPRPCYIPRP,-0.189
8,RRIRRRPPRLPRPRPRPNFGPRP,0.105
9,RRIRTRPPRLPRPRPRPMERPRP,0.0039
10,RRIRPRPPRLPRPRPRPSTAPRP,-0.105
11,RRIRNRPPRLPRPRPRPTWPPRP,0.77
12,RRIRLRPPRLPRPRPRPWPDPRP,-0.148
13,RRIRCRPPRLPRPRPRPDLFPRP,0.162
14,RRIRVRPPRLPRPRPRPPVAPRP,0.466
15,RRIRMRPPRLPRPRPRPMTWPRP,0.0101
16,RRIRSRPPRLPRPRPRPSHSPRP,-0.706
17,RRIRMRPPRLPRPRPRPKTEPRP,0.155
18,RRIRYRPPRLPRPRPRPRAAPRP,-0.0447
19,RRIRHRPPRLPRPRPRPDEFPRP,-0.0223
20,RRIRARPPRLPRPRPRPHTGPRP,-0.365
21,RRIRVRPPRLPRPRPRPPLCPRP,0.338
22,RRIRYRPPRLPRPRPRPDYGPRP,-0.205
23,RRIRGRPPRLPRPRPRPMADPRP,0.173
24,RRIRRRPPRLPRPRPRPCHWPRP,0.092
25,RRIRFRPPRLPRPRPRPHDPPRP,-0.1

row,Sequence,shrunken log2 fold change
1,RRIRCRPPRLPRPRPRPANLPRP,-0.687
2,RRIRLRPPRLPRPRPRPRDWPRP,0.847
3,RRIRYRPPRLPRPRPRPWHYPRP,-0.809
4,RRIRFRPPRLPRPRPRPSHTPRP,-0.035
5,RRIRMRPPRLPRPRPRPPYYPRP,-0.243
6,RRIRYRPPRLPRPRPRPMRFPRP,0.0781
7,RRIRRRPPRLPRPRPRPKRNPRP,0.525
8,RRIRLRPPRLPRPRPRPAKEPRP,-0.049
9,RRIRCRPPRLPRPRPRPILHPRP,-0.575
10,RRIRYRPPRLPRPRPRPHFDPRP,0.144
11,RRIRGRPPRLPRPRPRPSSMPRP,-0.0636
12,RRIRSRPPRLPRPRPRPCQEPRP,-0.0101
13,RRIRPRPPRLPRPRPRPACPPRP,0.147
14,RRIRARPPRLPRPRPRPTQIPRP,0.553
15,RRIRRRPPRLPRPRPRPVEIPRP,0.048
16,RRIRMRPPRLPRPRPRPCNWPRP,-0.00208
17,RRIRTRPPRLPRPRPRPNMVPRP,-0.0672
18,RRIRFRPPRLPRPRPRPTAVPRP,0.117
19,RRIRMRPPRLPRPRPRPPGMPRP,1.08
20,RRIRHRPPRLPRPRPRPVQPPRP,-0.0332
21,RRIRGRPPRLPRPRPRPTILPRP,0.131
22,RRIRGRPPRLPRPRPRPDTTPRP,0.903
23,RRIRYRPPRLPRPRPRPSRCPRP,-0.154
24,RRIRHRPPRLPRPRPRPFAEPRP,-0.0659
25,RRIRQRPPRLPRPRPRPDIVPRP,-0.0164

row,Sequence,shrunken log2 fold change
1,RRIRDRPPRLPRPRPRPRHNPRP,-0.548
2,RRIRQRPPRLPRPRPRPCSPPRP,0.0218
3,RRIRMRPPRLPRPRPRPYYDPRP,0.000459
4,RRIRWRPPRLPRPRPRPKSEPRP,0.502
5,RRIRSRPPRLPRPRPRPRQMPRP,0.38
6,RRIRRRPPRLPRPRPRPNQIPRP,-0.349
7,RRIRFRPPRLPRPRPRPMNIPRP,-0.192
8,RRIRARPPRLPRPRPRPGNQPRP,-0.0242
9,RRIRTRPPRLPRPRPRPSYQPRP,-0.18
10,RRIRGRPPRLPRPRPRPHQRPRP,0.23
11,RRIRNRPPRLPRPRPRPNVSPRP,0.0376
12,RRIRFRPPRLPRPRPRPMYSPRP,-0.73
13,RRIRSRPPRLPRPRPRPVRGPRP,0.573
14,RRIRSRPPRLPRPRPRPRNLPRP,-0.322
15,RRIRNRPPRLPRPRPRPWYRPRP,-0.117
16,RRIRDRPPRLPRPRPRPPSQPRP,0.113
17,RRIRIRPPRLPRPRPRPMVWPRP,0.0906
18,RRIRLRPPRLPRPRPRPHENPRP,0.0369
19,RRIRTRPPRLPRPRPRPERTPRP,-0.0336
20,RRIRSRPPRLPRPRPRPIWMPRP,-0.000641
21,RRIRCRPPRLPRPRPRPKLGPRP,0.0989
22,RRIRYRPPRLPRPRPRPAYCPRP,-0.0229
23,RRIRMRPPRLPRPRPRPTGLPRP,0.961
24,RRIRYRPPRLPRPRPRPSRDPRP,0.0382
25,RRIRCRPPRLPRPRPRPVYCPRP,-0.755

row,Sequence,shrunken log2 fold change
1,RRIRNRPPRLPRPRPRPSSSPRP,-0.0202
2,RRIRMRPPRLPRPRPRPRWAPRP,1.3
3,RRIRMRPPRLPRPRPRPSEDPRP,0.974
4,RRIRERPPRLPRPRPRPLLAPRP,0.173
5,RRIRMRPPRLPRPRPRPMFWPRP,0.0479
6,RRIRTRPPRLPRPRPRPPEFPRP,-0.231
7,RRIRTRPPRLPRPRPRPEGYPRP,-0.104
8,RRIRWRPPRLPRPRPRPHYYPRP,-0.581
9,RRIRPRPPRLPRPRPRPRFIPRP,-0.184
10,RRIRDRPPRLPRPRPRPISGPRP,0.0039
11,RRIRRRPPRLPRPRPRPLPFPRP,-0.344
12,RRIRYRPPRLPRPRPRPMKKPRP,0.0048
13,RRIRCRPPRLPRPRPRPVAMPRP,-0.125
14,RRIRPRPPRLPRPRPRPGQPPRP,-0.0656
15,RRIRFRPPRLPRPRPRPHWGPRP,-0.0695
16,RRIRHRPPRLPRPRPRPPNFPRP,-0.00427
17,RRIRARPPRLPRPRPRPTIFPRP,0.377
18,RRIRRRPPRLPRPRPRPGHGPRP,1.04
19,RRIRYRPPRLPRPRPRPFPSPRP,-0.0392
20,RRIRHRPPRLPRPRPRPYSFPRP,-0.299
21,RRIRNRPPRLPRPRPRPMYFPRP,-0.0737
22,RRIRQRPPRLPRPRPRPKTDPRP,-0.326
23,RRIRYRPPRLPRPRPRPYKFPRP,-0.0196
24,RRIRIRPPRLPRPRPRPPYNPRP,-0.854
25,RRIRSRPPRLPRPRPRPEVMPRP,0.104

row,Sequence,shrunken log2 fold change
1,RRIRKRPPRLPRPRPRPFKSPRP,-0.294
2,RRIRRRPPRLPRPRPRPFLGPRP,0.187
3,RRIRFRPPRLPRPRPRPYKIPRP,-0.462
4,RRIRFRPPRLPRPRPRPISKPRP,-0.0939
5,RRIRFRPPRLPRPRPRPLSTPRP,-0.47
6,RRIRARPPRLPRPRPRPFSTPRP,-0.572
7,RRIRIRPPRLPRPRPRPYNFPRP,-0.99
8,RRIRNRPPRLPRPRPRPQNYPRP,-0.846
9,RRIRYRPPRLPRPRPRPPNRPRP,-0.0643
10,RRIRKRPPRLPRPRPRPGPAPRP,1.05
11,RRIRIRPPRLPRPRPRPLKDPRP,-0.0958
12,RRIRMRPPRLPRPRPRPACNPRP,0.39
13,RRIRMRPPRLPRPRPRPNDPPRP,-0.516
14,RRIRSRPPRLPRPRPRPKQYPRP,-0.361
15,RRIRNRPPRLPRPRPRPYGLPRP,-0.106
16,RRIRDRPPRLPRPRPRPSPQPRP,0.204
17,RRIRSRPPRLPRPRPRPITIPRP,-0.324
18,RRIRFRPPRLPRPRPRPQCNPRP,-0.531
19,RRIRRRPPRLPRPRPRPYYVPRP,-0.427
20,RRIRLRPPRLPRPRPRPKKYPRP,-0.143
21,RRIRQRPPRLPRPRPRPPHAPRP,0.322
22,RRIRVRPPRLPRPRPRPEFWPRP,0.439
23,RRIRNRPPRLPRPRPRPDDKPRP,-0.0189
24,RRIRVRPPRLPRPRPRPYKFPRP,-0.475
25,RRIRLRPPRLPRPRPRPFRSPRP,-0.0185
